This data set is described as follows: background-corrected fluorescence of 3'-dye-labeled ssDNA relative to brightest sequence (3'-GCGCG) (fraction); higher = brighter dye fluorescence (less quenching). Put shortly:
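Each of 1024 permuted pentamers was synthesized as single-stranded DNA on glass slides by light-directed phosphoramidite chemistry, with a 3' Cy3 or Cy5 dye alongside. Arrays were scanned at 532 or 635 nm before and after overnight deprotection with ethylenediamine/ethanol. Values average 10 features per array across at least 3 syntheses. The fluorescence readout, with unlabeled-oligo background removed, is given relative to the brightest sequence.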

± gives the standard error.

We go through 29 sequences from the supplement of paper PMC9428881.

Turning to “TTTTTTGCTGATGATGCTGATTTTTTTTTTTTTTTACCAC [CACCA]”, the background-corrected fluorescence came to 0.405 ± 0.01 (dye: Cy3 (3' terminal)) and 0.286 ± 0.018 (dye: Cy5 (3' terminal)).
For “TTTTTTGCTGATGATGCTGCTTTTTTTTTTTTTTTACCAA [AACCA]”, the background-corrected fluorescence is 0.485 ± 0.029 (dye: Cy3 (3' terminal)) and 0.402 ± 0.022 (dye: Cy5 (3' terminal)).
Consider “TTTTTTGCTGATGCGCAGCATTTTTTTTTTTTTTTACATT”, for which the background-corrected fluorescence by setting is: (dye: Cy3 (3' terminal)) 0.546 ± 0.011; (dye: Cy5 (3' terminal)) 0.384 ± 0.021.
Take “TTTTTTGCTGATGCGCATCATTTTTTTTTTTTTTTACATG [GTACA]”: the background-corrected fluorescence (dye: Cy3 (3' terminal)) was determined as 0.519 ± 0.03 and the background-corrected fluorescence (dye: Cy5 (3' terminal)) stood at 0.409 ± 0.023.
On the same counts, the results for “TTTTTTGCTGATGCGCATGATTTTTTTTTTTTTTTACATC [CTACA]” are 0.392 ± 0.027 and 0.322 ± 0.018.
As to “TTTTTTGCTGATGCGCATGCTTTTTTTTTTTTTTTACATA [ATACA]”, the background-corrected fluorescence runs as follows: (dye: Cy3 (3' terminal)) 0.591 ± 0.025; (dye: Cy5 (3' terminal)) 0.403 ± 0.038.
For the sequence “TTTTTTGCTGATGCTCAGCATTTTTTTTTTTTTTTACAGT [TGACA]”, the background-corrected fluorescence came out at 0.629 ± 0.039 (dye: Cy3 (3' terminal)) and 0.474 ± 0.03 (dye: Cy5 (3' terminal)).
In the case of “TTTTTTGCTGATGCTCATCATTTTTTTTTTTTTTTACAGG [GGACA]”, the background-corrected fluorescence was 0.646 ± 0.034 (dye: Cy3 (3' terminal)) and 0.511 ± 0.053 (dye: Cy5 (3' terminal)).
On the same counts, the results for “TTTTTTGCTGATGCTCATGATTTTTTTTTTTTTTTACAGC [CGACA]” are 0.508 ± 0.023 and 0.404 ± 0.024.
For “TTTTTTGCTGATGCTCATGCTTTTTTTTTTTTTTTACAGA [AGACA]” the same measures were 0.615 ± 0.02 and 0.459 ± 0.036.
Take “TTTTTTGCTGATGCTGAGCATTTTTTTTTTTTTTTACACT [TCACA]”: the background-corrected fluorescence was 0.51 ± 0.018 (dye: Cy3 (3' terminal)) and 0.35 ± 0.033 (dye: Cy5 (3' terminal)).
As to “TTTTTTGCTGATGCTGATCATTTTTTTTTTTTTTTACACG [GCACA]”, the background-corrected fluorescence came out at 0.504 ± 0.029 (dye: Cy3 (3' terminal)) and 0.422 ± 0.054 (dye: Cy5 (3' terminal)).
For “TTTTTTGCTGATGCTGATGATTTTTTTTTTTTTTTACACC [CCACA]”, the background-corrected fluorescence was determined as 0.369 ± 0.022 (dye: Cy3 (3' terminal)) and 0.275 ± 0.012 (dye: Cy5 (3' terminal)).
“TTTTTTGCTGATGCTGATGCTTTTTTTTTTTTTTTACACA”: the background-corrected fluorescence reads like this: (dye: Cy3 (3' terminal)) 0.469 ± 0.022; (dye: Cy5 (3' terminal)) 0.374 ± 0.031.
Consider “TTTTTTGCTGATGCTGCGCATTTTTTTTTTTTTTTACAAT [TAACA]”, for which the background-corrected fluorescence runs as follows: (dye: Cy3 (3' terminal)) 0.525 ± 0.028; (dye: Cy5 (3' terminal)) 0.396 ± 0.021.
Consider “TTTTTTGCTGATGCTGCTCATTTTTTTTTTTTTTTACAAG [GAACA]”, for which the background-corrected fluorescence amounted to 0.53 ± 0.015 (dye: Cy3 (3' terminal)) and 0.425 ± 0.021 (dye: Cy5 (3' terminal)).
For the sequence “TTTTTTGCTGATGCTGCTGATTTTTTTTTTTTTTTACAAC [CAACA]”, the background-corrected fluorescence (dye: Cy3 (3' terminal)) came out at 0.448 ± 0.0078 and the background-corrected fluorescence (dye: Cy5 (3' terminal)) stood at 0.302 ± 0.032.
For “TTTTTTGCTGATGCTGCTGCTTTTTTTTTTTTTTTACAAA [AAACA]”, the background-corrected fluorescence runs as follows: (dye: Cy3 (3' terminal)) 0.581 ± 0.022; (dye: Cy5 (3' terminal)) 0.499 ± 0.064.
On to “TTTTTTGCTGCGCAGCAGCATTTTTTTTTTTTTTTAATTT”, for which the background-corrected fluorescence was 0.559 ± 0.029 (dye: Cy3 (3' terminal)) and 0.39 ± 0.025 (dye: Cy5 (3' terminal)).
Regarding “TTTTTTGCTGCGCAGCATCATTTTTTTTTTTTTTTAATTG [GTTAA]”, the background-corrected fluorescence was determined as 0.561 ± 0.03 (dye: Cy3 (3' terminal)) and 0.381 ± 0.025 (dye: Cy5 (3' terminal)).
Turning to “TTTTTTGCTGCGCAGCATGATTTTTTTTTTTTTTTAATTC [CTTAA]”, the background-corrected fluorescence runs as follows: (dye: Cy3 (3' terminal)) 0.419 ± 0.015; (dye: Cy5 (3' terminal)) 0.297 ± 0.018.
Take “TTTTTTGCTGCGCAGCATGCTTTTTTTTTTTTTTTAATTA [ATTAA]”: the background-corrected fluorescence runs as follows: (dye: Cy3 (3' terminal)) 0.564 ± 0.022; (dye: Cy5 (3' terminal)) 0.43 ± 0.027.
For “TTTTTTGCTGCGCATCAGCATTTTTTTTTTTTTTTAATGT [TGTAA]” the same measures were 0.616 ± 0.033 and 0.507 ± 0.031.
On the same counts, the results for “TTTTTTGCTGCGCATCATCATTTTTTTTTTTTTTTAATGG [GGTAA]” are 0.645 ± 0.023 and 0.51 ± 0.048.
On the same counts, the results for “TTTTTTGCTGCGCATCATGATTTTTTTTTTTTTTTAATGC [CGTAA]” are 0.515 ± 0.016 and 0.4 ± 0.035.
On to “TTTTTTGCTGCGCATCATGCTTTTTTTTTTTTTTTAATGA [AGTAA]”, for which the background-corrected fluorescence reads like this: (dye: Cy3 (3' terminal)) 0.634 ± 0.032; (dye: Cy5 (3' terminal)) 0.524 ± 0.03.
For “TTTTTTGCTGCGCATGAGCATTTTTTTTTTTTTTTAATCT [TCTAA]”, the background-corrected fluorescence (dye: Cy3 (3' terminal)) was 0.483 ± 0.036 and the background-corrected fluorescence (dye: Cy5 (3' terminal)) stood at 0.338 ± 0.02.
Sequence “TTTTTTGCTGCGCATGATCATTTTTTTTTTTTTTTAATCG [GCTAA]” registered a background-corrected fluorescence (dye: Cy3 (3' terminal)) of 0.504 ± 0.0074 and a background-corrected fluorescence (dye: Cy5 (3' terminal)) of 0.399 ± 0.026.
On to “TTTTTTGCTGCGCATGATGATTTTTTTTTTTTTTTAATCC [CCTAA]”, for which the background-corrected fluorescence by setting is: (dye: Cy3 (3' terminal)) 0.376 ± 0.013; (dye: Cy5 (3' terminal)) 0.29 ± 0.018.
